The supplement of paper PMC10065799, “High-throughput profiling of sequence recognition by tyrosine kinases and SH2 domains using bacterial peptide display” (eLife, 2023)

The sequences below were run on c-Abl (mouse) (assay: phosphorylation enrichment, bacterial display (enrichment ratio); higher = better substrate or ligand; peptides without Tyr show the background).
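Further: 11-residue human phosphosite peptides and single-mutation variants displayed on the E. coli surface, counted by deep sequencing, each peptide's frequency after selection divided by its frequency in the unselected input library; frequency after pTyr selection over input frequency; kinase dosed for 20-30% of maximal phosphorylation in three min.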

| Sequence | phosphorylation enrichment |
| --- | --- |
| MDDKEYFSVHN [MET_Y1234_Y1230D_YF] | 0.757 |
| RNDLDYMDSRR [GAA_Y407_W402R] | 0.779 |
| PELINCHQHNS [BTK_Y361_Y361C] | 0.876 |
| KGVDRYNPENL [EIF3K_Y21_I18V] | 0.392 |
| ANVIRYFPTQA [SLC25A4_Y81] | 0.541 |
| STQAHYRLSAF [ADAMTS9_Y100_S96T] | 0.427 |
| RIVEIYSRSLQ [GCH1_Y175_R178S] | 1.07 |
| WQQQSYLFSGI [CTNNB1_Y30_D32Y_YF] | 0.765 |
| DSKIRYLSADS [TTF1_Y476_E473K] | 0.508 |
| DVFLKYLNFAT [PDE6B_Y212] | 1.46 |
| GIVEEYQLPYY [BMPR1A_Y453] | 1.16 |
| EVESPYEVHDF [GIGYF2_Y1168_YF] | 0.825 |
| NYYDTCIKTCL [IQGAP2_Y1445_Y1445C] | 0.894 |
| LWPIWYRCHRP [MRGPRX1_Y130] | 1.15 |
| MKGDYYRYLAE [YWHAG_Y131] | 0.686 |
| SGGCSYGSGGG [KRT1_Y539_G537C] | 0.637 |
| EYGSGYPNDPK [RNASEH2A_Y210_D205E] | 0.574 |
| FLLTVYSIFSK [SGCE_Y38] | 0.899 |
| DNQFAYLKAII [HNF4A_Y288_E285Q_YF] | 0.711 |
| IVAEFYDNLPH [DEGS1_Y284_A280V_YF] | 0.694 |
| ENGPYYASYPP [GDAP2_Y488_T489A] | 3.72 |
| ELAKFYKLHHI [AK7_Y391_N389K_YF] | 0.621 |
| DRLAVYIDRVS [LMNA_Y45_R50S] | 0.351 |
| LKLIQYHLIQQ [AKAP4_Y554_T557I] | 1.16 |
| KGNMYYENSYA [EGFR_Y113_R108K] | 0.474 |
| KTDKKYLMIKE [BAG3_Y451_E455K] | 0.616 |
| YRQLPYCPSVE [CTNND2_Y508_Q507P] | 5.88 |
| AAVLNYKAWRD [GRIN2A_Y737_G740W] | 0.808 |
| RFLERDIFNRE [HLA-DPB1_Y57_Y57D_YF] | 1.29 |

The sequences below were run against Jak2 (UniProt O60674) in the same assay as above.
Sequence of Jak2 (O60674 whole entry, looked up): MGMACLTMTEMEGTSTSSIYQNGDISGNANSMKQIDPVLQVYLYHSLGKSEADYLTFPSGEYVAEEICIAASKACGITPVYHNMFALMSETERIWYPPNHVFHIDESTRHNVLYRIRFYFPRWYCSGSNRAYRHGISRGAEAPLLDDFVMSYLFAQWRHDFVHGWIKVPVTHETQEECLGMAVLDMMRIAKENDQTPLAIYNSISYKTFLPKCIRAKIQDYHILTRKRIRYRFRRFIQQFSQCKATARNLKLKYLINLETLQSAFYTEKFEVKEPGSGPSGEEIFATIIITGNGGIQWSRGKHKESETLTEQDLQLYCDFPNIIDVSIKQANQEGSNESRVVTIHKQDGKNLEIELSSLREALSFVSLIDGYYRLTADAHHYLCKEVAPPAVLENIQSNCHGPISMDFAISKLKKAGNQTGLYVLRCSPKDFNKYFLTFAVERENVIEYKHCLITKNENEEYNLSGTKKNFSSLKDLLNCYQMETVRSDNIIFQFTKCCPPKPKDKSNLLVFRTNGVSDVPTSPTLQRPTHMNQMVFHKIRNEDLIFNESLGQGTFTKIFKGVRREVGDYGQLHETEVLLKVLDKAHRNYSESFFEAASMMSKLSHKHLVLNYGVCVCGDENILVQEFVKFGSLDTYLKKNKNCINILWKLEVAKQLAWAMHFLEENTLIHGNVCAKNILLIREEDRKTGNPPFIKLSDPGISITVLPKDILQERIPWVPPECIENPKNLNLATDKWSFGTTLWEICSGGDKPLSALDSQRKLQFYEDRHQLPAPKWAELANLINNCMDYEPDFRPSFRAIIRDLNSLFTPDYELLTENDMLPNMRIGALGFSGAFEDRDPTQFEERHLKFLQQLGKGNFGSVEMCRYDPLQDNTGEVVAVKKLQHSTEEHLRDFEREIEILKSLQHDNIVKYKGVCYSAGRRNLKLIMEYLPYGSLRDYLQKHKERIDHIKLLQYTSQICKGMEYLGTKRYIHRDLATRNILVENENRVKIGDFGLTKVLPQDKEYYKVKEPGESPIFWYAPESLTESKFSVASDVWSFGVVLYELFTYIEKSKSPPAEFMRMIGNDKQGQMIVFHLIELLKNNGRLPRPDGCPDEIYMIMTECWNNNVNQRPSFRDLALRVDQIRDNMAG

| Sequence | phosphorylation enrichment |
| --- | --- |
| MDDKEYFSVHN [MET_Y1234_Y1230D_YF] | 1.02 |
| RNDLDYMDSRR [GAA_Y407_W402R] | 0.798 |
| PELINCHQHNS [BTK_Y361_Y361C] | 0.971 |
| KGVDRYNPENL [EIF3K_Y21_I18V] | 0.428 |
| ANVIRYFPTQA [SLC25A4_Y81] | 0.61 |
| STQAHYRLSAF [ADAMTS9_Y100_S96T] | 0.487 |
| RIVEIYSRSLQ [GCH1_Y175_R178S] | 0.895 |
| WQQQSYLFSGI [CTNNB1_Y30_D32Y_YF] | 0.972 |
| DSKIRYLSADS [TTF1_Y476_E473K] | 0.611 |
| DVFLKYLNFAT [PDE6B_Y212] | 1.56 |
| GIVEEYQLPYY [BMPR1A_Y453] | 1.29 |
| EVESPYEVHDF [GIGYF2_Y1168_YF] | 1.23 |
| NYYDTCIKTCL [IQGAP2_Y1445_Y1445C] | 1.17 |
| LWPIWYRCHRP [MRGPRX1_Y130] | 1.17 |
| MKGDYYRYLAE [YWHAG_Y131] | 3.29 |
| SGGCSYGSGGG [KRT1_Y539_G537C] | 0.773 |
| EYGSGYPNDPK [RNASEH2A_Y210_D205E] | 0.672 |
| FLLTVYSIFSK [SGCE_Y38] | 1.1 |
| DNQFAYLKAII [HNF4A_Y288_E285Q_YF] | 1.02 |
| IVAEFYDNLPH [DEGS1_Y284_A280V_YF] | 0.792 |
| ENGPYYASYPP [GDAP2_Y488_T489A] | 0.662 |
| ELAKFYKLHHI [AK7_Y391_N389K_YF] | 0.645 |
| DRLAVYIDRVS [LMNA_Y45_R50S] | 0.725 |
| LKLIQYHLIQQ [AKAP4_Y554_T557I] | 1.4 |
| KGNMYYENSYA [EGFR_Y113_R108K] | 0.481 |
| KTDKKYLMIKE [BAG3_Y451_E455K] | 0.636 |
| YRQLPYCPSVE [CTNND2_Y508_Q507P] | 1.41 |
| AAVLNYKAWRD [GRIN2A_Y737_G740W] | 0.646 |
| RFLERDIFNRE [HLA-DPB1_Y57_Y57D_YF] | 1.69 |

The sequences below were run on c-Src in the same assay as above.

| Sequence | phosphorylation enrichment |
| --- | --- |
| MDDKEYFSVHN [MET_Y1234_Y1230D_YF] | 0.435 |
| RNDLDYMDSRR [GAA_Y407_W402R] | 0.555 |
| PELINCHQHNS [BTK_Y361_Y361C] | 0.69 |
| KGVDRYNPENL [EIF3K_Y21_I18V] | 0.397 |
| ANVIRYFPTQA [SLC25A4_Y81] | 0.674 |
| STQAHYRLSAF [ADAMTS9_Y100_S96T] | 0.323 |
| RIVEIYSRSLQ [GCH1_Y175_R178S] | 1.28 |
| WQQQSYLFSGI [CTNNB1_Y30_D32Y_YF] | 0.467 |
| DSKIRYLSADS [TTF1_Y476_E473K] | 0.527 |
| DVFLKYLNFAT [PDE6B_Y212] | 0.597 |
| GIVEEYQLPYY [BMPR1A_Y453] | 3.47 |
| EVESPYEVHDF [GIGYF2_Y1168_YF] | 5.45 |
| NYYDTCIKTCL [IQGAP2_Y1445_Y1445C] | 1.16 |
| LWPIWYRCHRP [MRGPRX1_Y130] | 0.466 |
| MKGDYYRYLAE [YWHAG_Y131] | 0.639 |
| SGGCSYGSGGG [KRT1_Y539_G537C] | 0.394 |
| EYGSGYPNDPK [RNASEH2A_Y210_D205E] | 0.386 |
| FLLTVYSIFSK [SGCE_Y38] | 3.17 |
| DNQFAYLKAII [HNF4A_Y288_E285Q_YF] | 0.372 |
| IVAEFYDNLPH [DEGS1_Y284_A280V_YF] | 0.733 |
| ENGPYYASYPP [GDAP2_Y488_T489A] | 5.28 |
| ELAKFYKLHHI [AK7_Y391_N389K_YF] | 0.505 |
| DRLAVYIDRVS [LMNA_Y45_R50S] | 0.311 |
| LKLIQYHLIQQ [AKAP4_Y554_T557I] | 0.582 |
| KGNMYYENSYA [EGFR_Y113_R108K] | 0.473 |
| KTDKKYLMIKE [BAG3_Y451_E455K] | 0.392 |
| YRQLPYCPSVE [CTNND2_Y508_Q507P] | 0.881 |
| AAVLNYKAWRD [GRIN2A_Y737_G740W] | 0.396 |
| RFLERDIFNRE [HLA-DPB1_Y57_Y57D_YF] | 0.584 |

What follows are sequences tested against EPHB1 (UniProt P54762) in the same assay as above.
Sequence of EPHB1 (P54762 whole entry, looked up): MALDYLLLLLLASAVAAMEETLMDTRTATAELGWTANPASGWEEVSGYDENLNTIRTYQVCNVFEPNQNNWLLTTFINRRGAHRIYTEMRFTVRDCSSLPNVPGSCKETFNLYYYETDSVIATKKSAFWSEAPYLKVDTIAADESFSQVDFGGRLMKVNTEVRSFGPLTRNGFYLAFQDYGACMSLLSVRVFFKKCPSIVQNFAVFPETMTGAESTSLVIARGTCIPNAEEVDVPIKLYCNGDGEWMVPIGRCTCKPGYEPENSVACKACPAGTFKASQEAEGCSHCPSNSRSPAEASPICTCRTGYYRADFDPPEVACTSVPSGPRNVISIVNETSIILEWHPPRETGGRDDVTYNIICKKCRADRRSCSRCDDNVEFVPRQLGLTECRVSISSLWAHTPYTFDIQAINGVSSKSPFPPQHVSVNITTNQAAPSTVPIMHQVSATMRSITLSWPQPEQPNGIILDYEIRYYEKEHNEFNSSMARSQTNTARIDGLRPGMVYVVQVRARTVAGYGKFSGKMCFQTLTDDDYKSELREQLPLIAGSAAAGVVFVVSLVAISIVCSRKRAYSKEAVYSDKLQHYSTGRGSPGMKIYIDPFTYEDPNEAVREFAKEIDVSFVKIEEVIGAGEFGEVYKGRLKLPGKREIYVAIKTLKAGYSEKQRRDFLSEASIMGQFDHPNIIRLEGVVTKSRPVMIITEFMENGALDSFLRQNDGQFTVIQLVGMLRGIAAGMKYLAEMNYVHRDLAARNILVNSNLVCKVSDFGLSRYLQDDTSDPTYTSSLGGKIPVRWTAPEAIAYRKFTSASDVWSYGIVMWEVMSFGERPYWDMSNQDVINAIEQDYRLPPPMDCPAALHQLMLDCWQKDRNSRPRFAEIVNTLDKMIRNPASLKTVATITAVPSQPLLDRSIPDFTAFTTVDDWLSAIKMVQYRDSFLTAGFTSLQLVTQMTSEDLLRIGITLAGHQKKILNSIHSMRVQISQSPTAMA

| Sequence | phosphorylation enrichment |
| --- | --- |
| MDDKEYFSVHN [MET_Y1234_Y1230D_YF] | 0.492 |
| RNDLDYMDSRR [GAA_Y407_W402R] | 0.426 |
| PELINCHQHNS [BTK_Y361_Y361C] | 0.676 |
| KGVDRYNPENL [EIF3K_Y21_I18V] | 0.35 |
| ANVIRYFPTQA [SLC25A4_Y81] | 0.42 |
| STQAHYRLSAF [ADAMTS9_Y100_S96T] | 0.395 |
| RIVEIYSRSLQ [GCH1_Y175_R178S] | 1.03 |
| WQQQSYLFSGI [CTNNB1_Y30_D32Y_YF] | 0.461 |
| DSKIRYLSADS [TTF1_Y476_E473K] | 0.465 |
| DVFLKYLNFAT [PDE6B_Y212] | 0.855 |
| GIVEEYQLPYY [BMPR1A_Y453] | 0.611 |
| EVESPYEVHDF [GIGYF2_Y1168_YF] | 0.837 |
| NYYDTCIKTCL [IQGAP2_Y1445_Y1445C] | 7.47 |
| LWPIWYRCHRP [MRGPRX1_Y130] | 0.721 |
| MKGDYYRYLAE [YWHAG_Y131] | 1.09 |
| SGGCSYGSGGG [KRT1_Y539_G537C] | 0.475 |
| EYGSGYPNDPK [RNASEH2A_Y210_D205E] | 0.369 |
| FLLTVYSIFSK [SGCE_Y38] | 0.643 |
| DNQFAYLKAII [HNF4A_Y288_E285Q_YF] | 0.43 |
| IVAEFYDNLPH [DEGS1_Y284_A280V_YF] | 0.517 |
| ENGPYYASYPP [GDAP2_Y488_T489A] | 1.64 |
| ELAKFYKLHHI [AK7_Y391_N389K_YF] | 0.547 |
| DRLAVYIDRVS [LMNA_Y45_R50S] | 0.472 |
| LKLIQYHLIQQ [AKAP4_Y554_T557I] | 0.95 |
| KGNMYYENSYA [EGFR_Y113_R108K] | 0.629 |
| KTDKKYLMIKE [BAG3_Y451_E455K] | 0.426 |
| YRQLPYCPSVE [CTNND2_Y508_Q507P] | 0.692 |
| AAVLNYKAWRD [GRIN2A_Y737_G740W] | 0.408 |
| RFLERDIFNRE [HLA-DPB1_Y57_Y57D_YF] | 0.769 |
